Measurements taken from patent US20080050810A1.

How the values were obtained:
[1] = molecular target: anti-CC49 variable region antibodies in the serum of patient three; experiment: HPLC, 125I-HuCC49 + serum + 5 Tg competitor; fewer complexes = competitor bound
[2] = molecular target: anti-CC49 variable region antibodies in the serum of patient one; experiment: as above
[3] = molecular target: anti-CC49 variable region antibodies in the serum of patient six; experiment: as above
[4] = molecular target: anti-CC49 variable region antibodies in the serum of patient five; experiment: as above
[5] = molecular target: anti-CC49 variable region antibodies in the serum of patient four; experiment: as above
[6] = molecular target: anti-CC49 variable region antibodies in the serum of patient two; experiment: as above
[7] = molecular target: TAG-72 positive bovine submaxillary mucin (BSM) (bovine); experiment: relative affinity constant from competition RIA on BSM
[8] = molecular target: anti-idiotypic antibodies in the serum of one patient who had received ^177Lu-CC49 (Example V, patient not named); experiment: size-exclusion HPLC competition vs 125I-HuCC49 + patient serum
[9] = molecular target: anti-CC49 variable region antibodies in the serum of patient six; experiment: HPLC, serial dilutions of cold competitor vs 125I-HuCC49 + CP serum
[10] = molecular target: mouse anti-idiotypic MAb AI49-3; experiment: competition RIA vs 125I-CC49 on AI49-3-coated wells
[11] = molecular target: mouse anti-idiotypic MAb AI49-1; experiment: competition RIA vs 125I-CC49 on AI49-1-coated wells

Binder	percent of complexes [1] [%]	percent of complexes [2] [%]	percent of complexes [3] [%]	percent of complexes [4] [%]	percent of complexes [5] [%]	percent of complexes [6] [%]	fold less Ka than HuCC49 [7] [fold]	Ka [7] [M⁻¹]	further results
HuCC49 CDR variant L-1 (antibody, V domains shown) VH: QVQLVQSGAEVVKPGASVKISCKASGYTFTDHAIHWVKQNPGQRLEWIGYFSPGNDDFKYNERFKGKATLTADTSASTAYVELSSLRSEDTAVYFCTRSLNMAYWGQGTLVTVSS VL: DIVMSQSPDSLAVSLGERVTLNCKSSQSVLYSSNSKNYLAWYQQKPGQSPKLLIYWASARESGVPDRFSGSGSGTDFTLTISSVQAEDVAVYYCQQYYSYPLTFGAGTKLELK	12.2	16	16.9	14.3	9.8	10.1	2	–	amount of competitor for 50% inhibition of complex formation [8]: 0.7 Tg
HuCC49 variant MAb ^97L1,2/^60-62,64H (antibody, V domains shown) VH: QVQLVQSGAEVVKPGASVKISCKASGYTFTDHAIHWVKQNPGQRLEWIGYFSPGNDDFKYSQKFQGKATLTADTSASTAYVELSSLRSEDTAVYFCTRSLNMAYWGQGTLVTVSS VL: DIVMSQSPDSLAVSLGERVTLNCKSSQSVLYSSNSKNYLAWYQQKPGQSPKLLIYWASTRESGVPDRFSGSGSGTDFTLTISSVQAEDVAVYYCQQYYSYPLSFGAGTKLELK	–	–	–	–	–	–	3	–	percent competition at 1 Tg [9]: < 25%
HuCC49 CDR variant H-3 (antibody, V domains shown) VH: QVQLVQSGAEVVKPGASVKISCKASGYTFTDHAIHWVKQNPGQRLEWIGYFSPGNDDFKYNERFKGKATLTADTSASTAYVELSSLRSEDTAVYFCTRGGYYGSGSGSNYWGQGTLVTVSS VL: DIVMSQSPDSLAVSLGERVTLNCKSSQSLLYSGNQKNYLAWYQQKPGQSPKLLIYWASARESGVPDRFSGSGSGTDFTLTISSVQAEDVAVYYCQQYYSYPLTFGAGTKLELK	5.1	7.3	6.7	4.6	3.7	8.2	–	–	amount of competitor for 50% inhibition of complex formation [8]: 0.4 Tg
HuCC49 variant MAb ^97L/^60-62,64H (antibody, V domains shown) VH: QVQLVQSGAEVVKPGASVKISCKASGYTFTDHAIHWVKQNPGQRLEWIGYFSPGNDDFKYSQKFQGKATLTADTSASTAYVELSSLRSEDTAVYFCTRSLNMAYWGQGTLVTVSS VL: DIVMSQSPDSLAVSLGERVTLNCKSSQSLLYSGNQKNYLAWYQQKPGQSPKLLIYWASARESGVPDRFSGSGSGTDFTLTISSVQAEDVAVYYCQQYYSYPLSFGAGTKLELK	–	–	–	–	–	–	–	5.48e+08	–
HuCC49 SDR variant ^60-62,64H (antibody, V domains shown) VH: QVQLVQSGAEVVKPGASVKISCKASGYTFTDHAIHWVKQNPGQRLEWIGYFSPGNDDFKYSQKFQGKATLTADTSASTAYVELSSLRSEDTAVYFCTRSLNMAYWGQGTLVTVSS VL: DIVMSQSPDSLAVSLGERVTLNCKSSQSLLYSGNQKNYLAWYQQKPGQSPKLLIYWASARESGVPDRFSGSGSGTDFTLTISSVQAEDVAVYYCQQYYSYPLTFGAGTKLELK	–	–	–	–	–	–	–	2.2e+08	–
HuCC49 CDR variant L-1,2 (antibody, V domains shown) VH: QVQLVQSGAEVVKPGASVKISCKASGYTFTDHAIHWVKQNPGQRLEWIGYFSPGNDDFKYNERFKGKATLTADTSASTAYVELSSLRSEDTAVYFCTRSLNMAYWGQGTLVTVSS VL: DIVMSQSPDSLAVSLGERVTLNCKSSQSVLYSSNSKNYLAWYQQKPGQSPKLLIYWASTRESGVPDRFSGSGSGTDFTLTISSVQAEDVAVYYCQQYYSYPLTFGAGTKLELK	24.5	24.6	15.7	20.2	12.6	19.4	2	–	–
humanized monoclonal antibody HuCC49 (parental HuCC49) (antibody, V domains shown) VH: QVQLVQSGAEVVKPGASVKISCKASGYTFTDHAIHWVKQNPGQRLEWIGYFSPGNDDFKYNERFKGKATLTADTSASTAYVELSSLRSEDTAVYFCTRSLNMAYWGQGTLVTVSS VL: DIVMSQSPDSLAVSLGERVTLNCKSSQSLLYSGNQKNYLAWYQQKPGQSPKLLIYWASARESGVPDRFSGSGSGTDFTLTISSVQAEDVAVYYCQQYYSYPLTFGAGTKLELK	0	0	1.5	3	2.6	0.5	–	3.2e+08	amount of competitor for 25% competition [9]: 60 ng; amount of competitor for 50% competition [9]: 250 ng
HuCC49 SDR variant ^97L (antibody, V domains shown) VH: QVQLVQSGAEVVKPGASVKISCKASGYTFTDHAIHWVKQNPGQRLEWIGYFSPGNDDFKYNERFKGKATLTADTSASTAYVELSSLRSEDTAVYFCTRSLNMAYWGQGTLVTVSS VL: DIVMSQSPDSLAVSLGERVTLNCKSSQSLLYSGNQKNYLAWYQQKPGQSPKLLIYWASARESGVPDRFSGSGSGTDFTLTISSVQAEDVAVYYCQQYYSYPLSFGAGTKLELK	–	–	–	–	–	–	–	3.6e+08	–
HuCC49 CDR variant L-2 (antibody, V domains shown) VH: QVQLVQSGAEVVKPGASVKISCKASGYTFTDHAIHWVKQNPGQRLEWIGYFSPGNDDFKYNERFKGKATLTADTSASTAYVELSSLRSEDTAVYFCTRSLNMAYWGQGTLVTVSS VL: DIVMSQSPDSLAVSLGERVTLNCKSSQSLLYSGNQKNYLAWYQQKPGQSPKLLIYWASTRESGVPDRFSGSGSGTDFTLTISSVQAEDVAVYYCQQYYSYPLTFGAGTKLELK	3.4	2.7	3	2.4	2.7	4.4	–	–	fold better competition than HuCC49 [8]: 2 fold
HuCC49 CDR variant L-3 (antibody, V domains shown) VH: QVQLVQSGAEVVKPGASVKISCKASGYTFTDHAIHWVKQNPGQRLEWIGYFSPGNDDFKYNERFKGKATLTADTSASTAYVELSSLRSEDTAVYFCTRSLNMAYWGQGTLVTVSS VL: DIVMSQSPDSLAVSLGERVTLNCKSSQSLLYSGNQKNYLAWYQQKPGQSPKLLIYWASARESGVPDRFSGSGSGTDFTLTISSVQAEDVAVYYCQQYYSTPYSFGAGTKLELK	48.2	34.8	33.5	46.7	22.4	37.6	–	–	–
HuCC49 CDR variant H-2 (antibody, V domains shown) VH: QVQLVQSGAEVVKPGASVKISCKASGYTFTDHAIHWVKQNPGQRLEWIGWINAGNGNTKYSQKFQGKATLTADTSASTAYVELSSLRSEDTAVYFCTRSLNMAYWGQGTLVTVSS VL: DIVMSQSPDSLAVSLGERVTLNCKSSQSLLYSGNQKNYLAWYQQKPGQSPKLLIYWASARESGVPDRFSGSGSGTDFTLTISSVQAEDVAVYYCQQYYSYPLTFGAGTKLELK	32.5	32.7	29.7	36.6	12.7	24.7	300	–	fold more competitor for 50% inhibition than HuCC49 [10]: 4 to 15 fold; fold more competitor for 50% inhibition than HuCC49 [11]: 4 to 15 fold; amount of competitor for 50% inhibition of complex formation [8]: > 10 Tg
HuCC49 variant ^97L1,2 (antibody, V domains shown) VH: QVQLVQSGAEVVKPGASVKISCKASGYTFTDHAIHWVKQNPGQRLEWIGYFSPGNDDFKYNERFKGKATLTADTSASTAYVELSSLRSEDTAVYFCTRSLNMAYWGQGTLVTVSS VL: DIVMSQSPDSLAVSLGERVTLNCKSSQSVLYSSNSKNYLAWYQQKPGQSPKLLIYWASTRESGVPDRFSGSGSGTDFTLTISSVQAEDVAVYYCQQYYSYPLSFGAGTKLELK	–	–	–	–	–	–	2 to 3	1.4e+08	–
HuCC49 CDR variant H-1 (antibody, V domains shown) VH: QVQLVQSGAEVVKPGASVKISCKASGYTFTSYAMHWVKQNPGQRLEWIGYFSPGNDDFKYNERFKGKATLTADTSASTAYVELSSLRSEDTAVYFCTRSLNMAYWGQGTLVTVSS VL: DIVMSQSPDSLAVSLGERVTLNCKSSQSLLYSGNQKNYLAWYQQKPGQSPKLLIYWASARESGVPDRFSGSGSGTDFTLTISSVQAEDVAVYYCQQYYSYPLTFGAGTKLELK	3.9	10.2	5.8	3.5	3.3	7	–	–	–
